Test results as given in publication PMC9971032, “Structure and mechanism of a tripartite ATP-independent periplasmic TRAP transporter” (Nature Communications, 2023).
Values belong to the compound of their own block, whether it stands above or below them.

What was measured:
SiaP = target: T1, SiaP (Photobacterium profundum, UniProt Q6LPV9); test: isothermal titration calorimetry; format: binding; details: 50 mM Tris-HCl pH 8.0, 150 mM NaCl, 25 °C; single-site fit
T1 construct: gene SMB20295; native signal peptide (residues 1-22) removed, apparently untagged (pET30deltaSE, ion-exchange and hydrophobic purification), E. coli BL21(DE3)
Source text: isothermal titration calorimetry on SiaP | We confirmed that SiaP binds sialic acid with nanomolar affinity

[1] = target: SiaQM transporter complex from Photobacterium profundum (Photobacterium profundum)
[2] = target: SiaQM complex with SiaM R292A (Photobacterium profundum)

Kd (SiaP): 561 nM
Compound: CC(=O)N[C@H]1[C@H]([C@H](O)[C@H](O)CO)OC(O)(C(=O)O)C[C@@H]1O (stereo partly drawn) [Neu5Ac]

reduction of [3H]-Neu5Ac transport activity in proteoliposomes against wildtype SiaPQM [1]: 77 % reduction
Compound: SiaP D59A (natural protein)

reduction of [3H]-Neu5Ac transport activity in proteoliposomes against wildtype SiaPQM [2]: 87 % reduction
Compound: SiaP (substrate-binding P-subunit of the sialic acid TRAP transporter from Photobacterium profundum) (natural protein)
